Measured values from patent publication US20200325224A1.

Legend:
[1] = target: cynomolgus CD3 epsilon (on expanded cynomolgus T cells) (cynomolgus) (UniProt Q95LI5); assay: FACS on expanded cynomolgus T cells (cyno PBL), antibody at 0.1 µg/ml, Alexa488-labelled secondary antibody, geomean of fluorescence
[2] = target: human CD3 epsilon (on human T cells / CD3-positive Jurkat E6-1 cells) (human) (UniProt P07766); assay: FACS on expanded human T cells (hum PBL), antibody at 10 µg/ml, Alexa488-labelled secondary antibody, geomean of fluorescence
[3] = target: human CD3 epsilon (on human T cells / CD3-positive Jurkat E6-1 cells) (human) (UniProt P07766); assay: FACS on expanded human T cells (hum PBL), antibody at 1 µg/ml, Alexa488-labelled secondary antibody, geomean of fluorescence
[4] = target: cynomolgus CD3 epsilon (on expanded cynomolgus T cells) (cynomolgus) (UniProt Q95LI5); assay: FACS on expanded cynomolgus T cells (cyno PBL), antibody at 1 µg/ml, Alexa488-labelled secondary antibody, geomean of fluorescence
[5] = target: human CD3 epsilon (on human T cells / CD3-positive Jurkat E6-1 cells) (human) (UniProt P07766); assay: FACS on expanded human T cells (hum PBL), antibody at 0.1 µg/ml, Alexa488-labelled secondary antibody, geomean of fluorescence
[6] = target: cynomolgus CD3 epsilon (on expanded cynomolgus T cells) (cynomolgus) (UniProt Q95LI5); assay: FACS on expanded cynomolgus T cells (cyno PBL), antibody at 10 µg/ml, Alexa488-labelled secondary antibody, geomean of fluorescence

Sequence of human CD3 epsilon (on human T cells / CD3-positive Jurkat E6-1 cells) (human) (P07766 23-207 limits assumed): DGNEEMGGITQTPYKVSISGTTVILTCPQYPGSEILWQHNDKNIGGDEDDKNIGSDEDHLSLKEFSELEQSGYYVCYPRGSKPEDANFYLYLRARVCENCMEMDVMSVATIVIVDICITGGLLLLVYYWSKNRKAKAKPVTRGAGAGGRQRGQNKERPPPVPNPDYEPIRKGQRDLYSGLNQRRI
Sequence of cynomolgus CD3 epsilon (on expanded cynomolgus T cells) (cynomolgus) (Q95LI5 22-197 limits assumed): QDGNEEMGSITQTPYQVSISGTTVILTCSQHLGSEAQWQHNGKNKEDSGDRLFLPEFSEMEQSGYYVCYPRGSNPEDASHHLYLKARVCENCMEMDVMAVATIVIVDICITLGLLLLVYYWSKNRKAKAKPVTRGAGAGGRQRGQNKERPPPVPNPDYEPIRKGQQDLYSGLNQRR

| Substance | geomean at 0.1 µg/ml [1] | geomean at 10 µg/ml [2] | geomean at 1 µg/ml [3] | geomean at 1 µg/ml [4] | geomean at 0.1 µg/ml [5] | geomean at 10 µg/ml [6] |
| --- | --- | --- | --- | --- | --- | --- |
| Iso rb (antibody) | 37 | 47 | 39 | 38 | 43 | 40 |
| M-IgG1 (antibody) | 33 | 44 | 42 | 33 | 40 | 34 |
| anti-CD3 reference antibody SP34-2 | 5000 | 15900 | 9610 | 16500 | 2610 | 19500 |
| hu-IgG1 (antibody) | 61 | 85 | 56 | 64 | 54 | 67 |
